Results reported in the domain aggregation screens of Martell et al. (2025).

Experiment: soluble fraction after stress (log2 fold change); higher = more stays soluble; pooled small domains, quantitative proteomics
Details: stress: 75 degC
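Note: 20 min heating vs room temperature control held 20 min.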

| Sequence | soluble fraction (log2) |
| --- | --- |
| HMSVTYRYSYVYNGNTYSDGWSVRRAIENNENKRFGPEPSDLDHEAQKQARVTFWAEHGVEYKEQEVV | -1.24 |
| HMSVYIGVDQAKSIAAEHAGLSNSAVTFSKAKLENDDGMTVYEVEFFYQGTEYDYKIDASTGSILEYDLDR | -1.64 |
| HMSWEDSLLKQAREIIDMYPQKRSAVGPLLHLAQSKDGYISDDSISVISKLVGITEVQLKSVSTFYSMYK | -1.74 |
| HMSWEELLEHLEKAAERGEEVRIAGVTLHDEEDFKRALRWLKEWL | -2.7 |
| HMSYIGEEKAKSIAVSNVKGAGTNNVVKVEFDYDDGRAVYEVKVVYNAMEYEFEIDASNGKILSRDAESIY | -1.45 |
| HMSYKFDSLAIILNKLDGKETVNVSSLSDELEVSARTVHRYIGTLQVAGFPIEYDKTKNSYIFSEGYTL | -0.794 |
| HMSYQFKIKNNAAVEVTVSEKNNLLGSTYGDKATVAAGMEKNVTFYTDKPDVVVDTNGNFTITVHDKEIII | 0.0601 |
| HMSYSYIYNYALKVKMDISSTGGKKPYAYYYYDHSYKLAEEILSLSEETESIELQNKYDELKDFYENP | -1.79 |
| HMSYTWHDMYLLAQEYQKEHGNLIIPRNYKGKNGLNLGYWLYKEKLKYRQGKLAPEKIIALEHIGIVWT | -1.25 |
| HMSYYKEMIRLADSIADKAHEGQTDRNGWPYISHPRRVALGARKLVSEMASSTSPDTSLEELKAEVQIVAL | -0.321 |
| HMTAAPEVRVEGLFKGAAVLKIDGQQVMLKKGRSHSSGVTLVDANAHRAIVEIDGQRHELALHMA | -0.0588 |
| HMTADIRFLNSRKFYIYKVEKGETLFSISQKFNIPQEEIIQFNKDINQQGLKAKTKLWVPAYSWL | -3.46 |
| HMTAGTGIAYSEFRSKVQEGQVKDVAIAPDRITGTLSSGQKFSTVPVNDPGLPKMLDDFNVKYSGQA | 0.139 |
| HMTAIWKTITATLTHDIATGKYAPGDRLPTEAQLAARFGVNRHTVRRAISDMNESGLTYSRRGAGVFVAQ | -2.56 |
| HMTALAVGDRVKMDKSATIYGTMRKFAAWVYATKLYVRGIDGNRVVVSTLKSGAITGAVDKKHLTK | -1.61 |
| HMTAMDTQQKKLIIMYHDIHRLRNVEHFTIQRIADHLLLNFRTVKKFLEMTQEEFDKFSENRW | -2.89 |
| HMTANPSTEEIMARVEAIPLPIKRLPPGQIVQAQTVAATVLRSNPGLDLAKAWKLAYATVTGQE | -0.15 |
| HMTANTQVENIRLELQRYMDEHGISQVTVARGIGKTHPVISQFLNNKYPGDVEEVARAIESWLTKQHEKAA | -0.128 |
| HMTAPELGIRQDGNTLVIFWPSSVTGYVLKSADAVDTPPASWTSVTHTTVGDEHRAEITPTGNSRFFRLV | -0.156 |
| HMTAPQAQDYARVPDVLGLDMRESAQALRLDGFEMNAQGDGLAARQSPIGGSYAPEGTQVLVTFEM | 0.053 |
| HMTAQLAAQERTHALDMFMGGYKFSSKPAENGVRAEFEKKNFTLEDGKFLGGDEFMKSLMENDDYKGAFV | 0.406 |
| HMTASKSTVSTPEKVVYHIVFPKETKYSIAKKYGITIEELEKRNPEIIPSLSVGQKLVIKGTAPK | -0.236 |
| HMTATDRQLQLIAYTAARLMAEQGIADFNAAKRKAIQTLGLPNNAKLPGNADVEAQLRAYQRIF | -0.605 |
| HMTATKDLPFSTFITEVEKGNITSVDIKGNQIEGTFSNGAKFKTYSPNYPNLVERLADKGVAISAGPS | 0.0934 |
| HMTAVPADVETVTGFTALDRAGLDTLLARLGLAMDLEDLSFLQAYFRDTERRDPTLTEIRVVDTYWSDH | -1.1 |
| HMTDAEQHEALLFKQVVDGLPQTLRDTFVLSRHAGMTYAEISAHTGTPIKTVESRMAKALELIAQRMR | -1.27 |

| Sequence | soluble fraction (log2) |
| --- | --- |
| HMTDDALIGKTAQVTVAIKPGSVGQITARVGDERVERLARASADAEIAAGSLVTIKSIAGDSVIVAPE | 0.317 |
| HMTDDPGLSRAENRELQTLLLDRGHDIGQPDGLIGAKTRAAIRAEQSRLNMPVNGRGGQKLLRALRL | 0.262 |
| HMTDFLKTRIDTLGLSTRTLNALSEANVRTIGGIARKKQEDLLEIDGIGEKGIQEIKKMLGEYGITL | -0.303 |
| HMTDFSDLSFKYNSEEKDVLNSINLKINGGEMTSLVGHSGAGKTTILNLIPRFYEKSKGDISIDGQSIY | 0.0241 |
| HMTDGLTVPMQGVVIRYKAKKGDKVAVGDAVAVLEAMKMEQNIFANKSGTIKEIYIKEGTTVTPGDVLMSI | -0.315 |
| HMTDLNDTQIKILELLSADASLSAAKMAGQLGIAGRNVEANIKKLKEKGILIRHGSPKSGYWEIVN | -0.349 |
| HMTDNSTTTIRNLKIEWLLEEIRNAVRTGVSVDAAVERISNNPFVKPPEDLLNEARIIFLQNAGQI | -0.79 |
| HMTDPVLYEERDDIAIITINRPEKKNTLTDAVIQGIADGIDAATKSADVVAVVLRGAGDTLTAGYDLTA | 0.213 |
| HMTDSDTQDIDVGELRVGHFVFLDLSWIRHPFPLSSFKIQSAEQIKTIRSLGLRRIRYSPGRSGP | -1.31 |
| HMTDSSEILEAALKEAEDAAHEVLNGTFSVQLEPQKAYIRRLQHMLIDRMNLSSTSKGKEPYRSLLVYR | -1.41 |
| HMTDTDVLSSRLSALSSGRTSAVRLRDGVLSLVLDVGGLSIEARKAMTTAIESTARATPGVEAVRIAET | -0.479 |
| HMTDTSFPRLGAPEEELLSFLAKWEIDAEDAHYTKFSLYYQSTGKMMRDWKATWRAWKERQSELNAQR | -2.33 |
| HMTDVGLEAAKAAALKHAGLSADQVTGLTAKLDWDDGQRVYEVDFWQGSTEYEYEINADGTVRQYESEAH | ≥ 1.04 |
| HMTDVRFIDIPVTEHHPWNGMKVRDLQLPPGTLLVFLSHPGEKNTVPHGETVLRSGDVLVLGATAYTGQ | -0.753 |
| HMTDVRFISIPIQKEHPWNRKLVSELNLPPGTLLVFLRRTGENIVPNGKTMIQEGDVLVLGASAYR | -1.31 |
| HMTEALEFTVEDLRMAGLVNSSFSRRRRELFSEKLGIGYGNGKSLLKKLNGYGITREEFNGAIQSLSD | -0.817 |
| HMTEIILTARSGRHAVRHRLEGLGYTLTPEELERVHQRFLAVADAKKEVFDEDLHALMADERGT | -0.219 |
| HMTEKMILKWKEALERMNDDFTTKDWLNVVIHEMGKSERTAYGWLSDMKRSGIIKDLGYGSWLKVLE | -1.37 |
| HMTEKPTREAHILDQLARDGGVLVAALSRELGVSEVTIRSDLRDLEAAGLLQRTHGGAQASSFQTVL | -0.0942 |
| HMTELNNTQRAAVLLLALDEDSAAEVFKHLSAREVQEVSQEMAKLGNISHDQMRQVLDDFYDESEQF | -0.127 |
| HMTELPLTPRSKRILEMSALEARRLNHSYIGTEHLLMAIIRDGDGVAAKILESLGVNLPNFYTDTVRSIE | 0.0533 |
| HMTELSLSEQAYQQLRRMIVRLDFAPGDVLREEALQEALGMSRTPIREALQRLAREHFVTVIPRRGMFVS | -3.15 |
| HMTELVIPDYFSKALAKNKKAKQVFEAFAYSHRKEYLQWITEAKTEETRNKRMATAIEWIAEGKGRNWKYA | -3.45 |
| HMTEPIESVTTIAGRRIPYRLVRSLRARRMRMTIKESQVTVTLPRGVPLGEAERFLQQNAAWLFKQLDKP | -2.63 |
| HMTESIHVGSKVTINNNAKRWATGQNIYSGVKGKTYTVIQMNGSRLLLDKVISWINKGDVHLPGS | -1.94 |
| HMTESIKRDEAIRLNNGRIYTLDAAKIGTNEYEVMLFNPRTGEEIDSAKTSTEADAILQFDRLRRMYHR | 0.0129 |

| Sequence | soluble fraction (log2) |
| --- | --- |
| HMTETELYDEVNRLIGLHLSERDRMILIMRDRDEFEIDAIAARTGLSEGNIRLILSRARRTVREAYRNNI | -4.11 |
| HMTETNSVTINERLTLYRRSRSGRWQARVKLNTGEWHRFSTGTADFEKAKESAHRELHNVGFRAENNLPQ | -1.16 |
| HMTFDWAAYEISEKEIRVMSLVAEGFSNKEIAQELFLSEGTVRNYISNILEKLGLRDRTQLAVHYLKAV | -3.83 |
| HMTFENMFIENSGETLDREFLVENLRGISWQSYDRSVDVLVSRLRGKLGETPNNTRFIKTIHGVGYKFIGE | 0.353 |
| HMTFGENLIRLRRQQGLSQEQLGMRIGVSRQTVSKWELNDTTPEMEKLIALADLFGLSLDELTGRV | -0.974 |
| HMTFNLDVDGDDQVTALGDGLMIIRKLFGATFAGDALTNKAISPDATRTTDEIHAYIEKGITSGVLD | -0.403 |
| HMTFPAILRELLEKHPQTGKRTTLKELGEAVGTRQQSISLYRNGDTQPSPDILVRIAAFFGVSVDYLL | -0.499 |
| HMTFPYTSLKDAPKNMKEIDGVPLTLDQVNQIAKVADSIGVSKEKNGYAIAKSQFKKSHHIENNRWVKNK | -0.179 |
| HMTFVHTQIEATKEWIISHPLDKHPAVAVVDSAGSIVIGEVDYISKSIVRLRFTAEFSGKAYL | -2.06 |
| HMTGAEGKLARYLLTVPSGEPLRLSATDLAKRLGISRASLYRAFQALEDARLIRREGKSMYVLDPAGLEGV | -0.723 |
| HMTGENWAERSRQLAAAGLLVLGKEAQEKIASLPNLIPLIEAAAASDTRLLNAQTIDELLSFVPTEETI | -0.104 |
| HMTGESVPAPLSGTIFKILVAPGEQVEEGQTVIILEAMKMETEISAPRSGVVGAINIKEGDSVQVGQSLFT | 0.232 |
| HMTGIKISVDRLQIGNYVKLPLNWKDHPFLFSSFAIKSQEEIDLIRRLGLKQVIMFPDKSSMPPKPV | -1.55 |
| HMTGLSNFEFNQIKLDLMHELTQTPLRLTDLVNRITSFENEKTITVIRFLVDEGILLLKDDTLSVAKID | -3.06 |
| HMTGMEAAEFGKRIMKLRKQKGMTQSKLAEQINVSNKAISRWETGEGFPEITLLKPLAKALGTTVDELFGE | -0.334 |
| HMTGMEKFLTIPSIRESTAAFEREYLIHYLDENAWQVSKTAAAIGIERTTLYKKMKQLGIVPIEE | -3.22 |
| HMTGNWRQMHKVKSKETIYGIAKEYGITVDELTKANPGMEAPGYTLKKGDYIFIPYATADANV | -0.432 |
| HMTGQEGLIGAHGVALTRLSNEEGEVKVQGEIWQARSDQEVAKGASIEVVHVDGLVLTVRPQH | -0.0319 |
| HMTGQLTEEELKQRQERAMSNPEIQGILSDPVMRQVLQDMSTDPKAAAEHQRNPTIMAKIQKLINAGIVQV | 0.00889 |
| HMTGSETLQDIFAHLEAGTVRTALSLIPRLDAVEYEQNRQRIAELAGVRPSALDDLRKQAKREEN | ≥ 1.04 |
| HMTGTKEQQVVMLNNILQKQLQAFELQGKRDYPMVTMKNMYNTLSKMVENAGLQTVESYFVDPIKGQQM | -0.694 |
| HMTGVEAIERYLASGVIPGVGPVLAKRLVERFGARTLEVIEDSPRRLTQVPGIGRQKARQIHQALKAQRE | -0.406 |
| HMTGYVMIRVDGLSLEKFLNMAAEAGVRVSDVRRASYTVLYAVVSPRDLKKLQSVAPEKYTVTVR | -1.18 |
| HMTHANAALTPRHRLKVARLVVDEGWPVSEVAARFQVSWPTVKRWADRYRAGQSMQDRSSRP | -1.96 |
